Publication PMC6468313, “Role of Cdc23/Mcm10 in generating the ribonucleotide imprint at the mat1 locus in fission yeast” (Nucleic Acids Research, 2019)

Biological target: T1, GST-Cdc23 (S. pombe, UniProt O42709 1-593)
T1 construct: Cdc23/Mcm10 of S. pombe; also called GST-tagged Cdc23; source: E. coli Codon Plus, from pGEX2T, induced with 1 mM IPTG for 16 h at 18°C; ultrafilter-concentrated extract (pull-down); partially purified (far-western)
T1 sequence (looked up): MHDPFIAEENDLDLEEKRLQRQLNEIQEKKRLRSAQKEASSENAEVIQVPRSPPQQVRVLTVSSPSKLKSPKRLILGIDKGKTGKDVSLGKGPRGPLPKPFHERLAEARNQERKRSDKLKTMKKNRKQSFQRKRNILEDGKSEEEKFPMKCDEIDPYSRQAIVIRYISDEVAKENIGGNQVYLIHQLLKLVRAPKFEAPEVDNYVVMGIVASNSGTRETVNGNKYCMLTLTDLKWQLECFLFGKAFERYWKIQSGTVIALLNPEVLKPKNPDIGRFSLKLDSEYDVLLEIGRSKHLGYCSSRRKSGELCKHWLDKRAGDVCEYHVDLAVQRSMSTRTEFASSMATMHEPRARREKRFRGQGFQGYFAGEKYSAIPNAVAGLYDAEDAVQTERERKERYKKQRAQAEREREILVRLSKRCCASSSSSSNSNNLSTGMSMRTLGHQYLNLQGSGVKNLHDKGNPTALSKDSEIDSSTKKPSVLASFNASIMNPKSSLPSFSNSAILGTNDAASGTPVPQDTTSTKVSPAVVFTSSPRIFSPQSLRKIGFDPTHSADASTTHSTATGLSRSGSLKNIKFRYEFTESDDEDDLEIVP
Test: far-Western, overlay or dot blot; partially purified GST and GST-Cdc23 resolved by SDS-PAGE, blotted and progressively renatured; incubated with purified extracts from E. coli expressing MBP, MBP-Polα^+ or MBP-Polα^Swi7-1; probed with anti-Polα
Settings: both partners purified

B1: MBP-Polα^Swi7-1 (natural protein, S. pombe, UniProt P28040 1-1405, looked up)
chain: MRKRNAGIKPSQRFAELRALRQAGKTRASTYESKENEELYDNVSEEEYRKIVRQRLDEDDFVVDDNGAGYVDNGYDEWDQSHYSDEDDENEKGSSGRKRKKSKNVLAEPNQQIGAFFKANAIQPASRIANRKNNEKEDEFMAEILGSIDQDIPERLSTKKGNRSHTTSNAKRRSQKAASSISTTNVVSSDPKKYIPETVPSTPQPASSLPIPSSPPAALETEENVDSQPMELDEPELPVGSDAPIIDVEESIAMKPLMSHDQVDDTASLSKATISQQPLSPMTPLSSELDVSAFSEINSKIKNVDVPASSYSSPISKVSPSDVTEEDGSLFFFWMDYTEMYGSLCLFGKVYDKATKQYVSCFLKVDGIMRSLYFLPRPSSSSVSEDSIAAQTKDVYDEVANLLSKRGVKEWKSRVSKYKYAFELEDVPRTADYLEVIYSYSYPALPTDLTGSSFSHVFGTNTALFEQFVLSRRVMGPCWLKIQQPNFDAVKNASWCRVEIGCSSPQNISVSFEKNEITSKTPPMTVMSLAFRTLINKEQNKQEVVMISARIFENVDIEKGLPANDMPSYSFSLIRPLKQIFPNGFEKLARQHKSSIFCERSEVSLLNNFLNKVRTYDPDVYFGHDFEMCYSVLLSRLKERKIHNWSSIGRLRRSEWPRSFNRSSQQFVEKQIIAGRLMCDLSNDFGRSMIKAQSWSLSEIVLKELDIKRQDINQEKALQSWTDTAHGLLDYLVHCEIDTFFIAAVAFKIQMLQLSKNLTNIAGNSWARTLTGTRAERNEYILLHEFKKNGYIVPDKQQSIRRHAEAFGAEDGLQEESLGKKKDKYKGGLVFEPQKGLYETCILVMDFNSLYPSIIQEYNICFTTVDRSPSNSDSDDQIPDTPSASANQGIFPRLIANLVERRRQIKGLLKDNSATPTQRLQWDIQQQALKLTANSMYGCLGYTKSRFYARPLAVLITYKGREALMNTKELADQMGLQVIYGDTDSVMLNTNVTDKNHALRIGNEFKEKVNERYSKLEIDIDNVYQRMLLHAKKKYAALQLDSQGKPNLDVKGLDMKRREFCTLAKEASKFCLDQILSGELTETVIENIHSYLMDFSEKMRNGKFPANKFIIFNRLEKNPEDYPNGKTMPFVQVALKKKARGENVRVGDVIPFIIAGSDADGHPADRAYSPQEIMNTNSTLVIDYNYYLSHQILPPIERVIAPIEGTNRARLAECLGLDARKYYSHETSESSAFQRYESTLTDDQCFINVSPLLLKCPSCNATSFSLRSVKSLKETLYANTVECDCGYEYSDFTIILQFSSQLRDFINLYYEGILVCDDSSCGNRTRQMSVYGKRCCNKSCRGSVHFEYNDEQLYNQIKFLLKAVQTTTGATRNGIIRCNAINKNISRIMNKNAREFVDMGLIFSS
notes: catalytic subunit of DNA polymerase α (Swi7) of S. pombe with the swi7-1 mutation G1116E; also called MBP-tagged swi7-1/polα; Polα^7-1; source: E. coli, from pMALp2, induced with 1 mM IPTG for 8 h at 25°C; purified on amylose resin (far-western)
fold weaker interaction than with Polα^+: ~3 fold
